Measured values as given in paper PMC10786891, “Massively parallel profiling of RNA-targeting CRISPR-Cas13d”.

T1: EsCas13d, nuclease-dead (Eubacterium siraeum, UniProt B0MS50, R295A;H300A;R849A;H854A)
T1 sequence: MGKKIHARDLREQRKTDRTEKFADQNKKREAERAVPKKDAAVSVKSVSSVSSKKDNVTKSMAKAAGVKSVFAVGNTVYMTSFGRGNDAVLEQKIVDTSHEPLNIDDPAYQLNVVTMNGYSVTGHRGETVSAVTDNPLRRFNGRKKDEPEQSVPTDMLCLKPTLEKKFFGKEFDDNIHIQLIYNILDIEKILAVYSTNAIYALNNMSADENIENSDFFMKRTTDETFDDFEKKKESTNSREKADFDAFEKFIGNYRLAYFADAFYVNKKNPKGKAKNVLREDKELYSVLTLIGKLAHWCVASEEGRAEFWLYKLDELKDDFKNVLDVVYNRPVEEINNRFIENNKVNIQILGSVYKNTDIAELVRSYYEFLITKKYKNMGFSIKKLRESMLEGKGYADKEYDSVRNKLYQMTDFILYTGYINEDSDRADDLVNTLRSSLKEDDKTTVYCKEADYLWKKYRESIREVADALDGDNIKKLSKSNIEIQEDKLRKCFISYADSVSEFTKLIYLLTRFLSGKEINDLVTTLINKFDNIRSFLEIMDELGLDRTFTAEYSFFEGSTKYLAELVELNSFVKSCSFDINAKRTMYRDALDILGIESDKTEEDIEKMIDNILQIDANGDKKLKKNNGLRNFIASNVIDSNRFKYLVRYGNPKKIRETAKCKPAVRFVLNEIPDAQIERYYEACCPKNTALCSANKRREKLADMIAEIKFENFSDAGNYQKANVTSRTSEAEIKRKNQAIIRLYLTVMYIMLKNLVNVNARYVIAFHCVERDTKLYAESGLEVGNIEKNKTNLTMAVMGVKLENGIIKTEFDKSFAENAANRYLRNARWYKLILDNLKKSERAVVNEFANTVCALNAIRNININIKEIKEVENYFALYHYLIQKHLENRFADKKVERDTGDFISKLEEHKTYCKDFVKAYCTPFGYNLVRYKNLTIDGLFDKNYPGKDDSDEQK


Molecular target: T1, EsCas13d, nuclease-dead
Assay: crRNA (strand 1, pre-loaded); Mg2+; 40 mM Tris-HCl pH 7.5, 150 mM NaCl, 6 mM MgCl2, 1 mM DTT, 0.1% Tween-20, 0.2 mg/ml BSA; 25 C; 10 min per concentration, then washed
Details: tags: His6-TwinStrep-SUMO cleaved; N-terminal SNAP kept (SNAP-Surface 488); label: 3' end held by stalled T7 RNA polymerase

| Binder | Kd |
| --- | --- |
| target 1 U3C,G13C (mixed) RNA 1: CACCCGUGCAAAAAUGCAGGGGUCUAAAACUGAGCGGAUAACCUCUCUAUGG RNA 2: GGGAAUGGAUCCACAUCUACGAAUUCGUACCAUAGAGACGUUAUCCGCCCACCGAGAUCGGAAGAGCACACGU | 36 ± 4 nM |
| target 1 insU 3' of 21,insA 3' of 13 (mixed) RNA 1: CACCCGUGCAAAAAUGCAGGGGUCUAAAACUGAGCGGAUAACCUCUCUAUGG RNA 2: GGGAAUGGAUCCACAUCUACGAAUUCGUACCUAUAGAGAGAGUUAUCCGCUCACCGAGAUCGGAAGAGCACACGU | 21.3 ± 1.3 nM |
| target 1 U11C,G13C (mixed) RNA 1: CACCCGUGCAAAAAUGCAGGGGUCUAAAACUGAGCGGAUAACCUCUCUAUGG RNA 2: GGGAAUGGAUCCACAUCUACGAAUUCGUACCAUAGAGACGCUAUCCGCUCACCGAGAUCGGAAGAGCACACGU | 62 ± 23 nM |
| target 1 A1G,C7A (mixed) RNA 1: CACCCGUGCAAAAAUGCAGGGGUCUAAAACUGAGCGGAUAACCUCUCUAUGG RNA 2: GGGAAUGGAUCCACAUCUACGAAUUCGUACCAUAGAGAGGUUAUACGCUCGCCGAGAUCGGAAGAGCACACGU | 8.7 ± 0.5 nM |
| target 1 insC 3' of 15,insA 3' of 6 (mixed) RNA 1: CACCCGUGCAAAAAUGCAGGGGUCUAAAACUGAGCGGAUAACCUCUCUAUGG RNA 2: GGGAAUGGAUCCACAUCUACGAAUUCGUACCAUAGAGCAGGUUAUCCAGCUCACCGAGAUCGGAAGAGCACACGU | 22.4 ± 1.5 nM |
| target 1 insC 3' of 14,insC 3' of 13 (mixed) RNA 1: CACCCGUGCAAAAAUGCAGGGGUCUAAAACUGAGCGGAUAACCUCUCUAUGG RNA 2: GGGAAUGGAUCCACAUCUACGAAUUCGUACCAUAGAGACGCGUUAUCCGCUCACCGAGAUCGGAAGAGCACACGU | 53 ± 9 nM |
| target 1 insA 3' of 12,insA 3' of 12 (mixed) RNA 1: CACCCGUGCAAAAAUGCAGGGGUCUAAAACUGAGCGGAUAACCUCUCUAUGG RNA 2: GGGAAUGGAUCCACAUCUACGAAUUCGUACCAUAGAGAGGAAUUAUCCGCUCACCGAGAUCGGAAGAGCACACGU | 14.3 ± 0.7 nM |
| target 1 C4G,G13A (mixed) RNA 1: CACCCGUGCAAAAAUGCAGGGGUCUAAAACUGAGCGGAUAACCUCUCUAUGG RNA 2: GGGAAUGGAUCCACAUCUACGAAUUCGUACCAUAGAGAAGUUAUCCGGUCACCGAGAUCGGAAGAGCACACGU | 7.3 ± 0.9 nM |
| target 1 insC 3' of 19,insA 3' of 8 (mixed) RNA 1: CACCCGUGCAAAAAUGCAGGGGUCUAAAACUGAGCGGAUAACCUCUCUAUGG RNA 2: GGGAAUGGAUCCACAUCUACGAAUUCGUACCAUCAGAGAGGUUAUACCGCUCACCGAGAUCGGAAGAGCACACGU | 47 ± 4 nM |
| target 1 C4A,U11C (mixed) RNA 1: CACCCGUGCAAAAAUGCAGGGGUCUAAAACUGAGCGGAUAACCUCUCUAUGG RNA 2: GGGAAUGGAUCCACAUCUACGAAUUCGUACCAUAGAGAGGCUAUCCGAUCACCGAGAUCGGAAGAGCACACGU | 10 ± 0.9 nM |
| target 1 A9G,C22U (mixed) RNA 1: CACCCGUGCAAAAAUGCAGGGGUCUAAAACUGAGCGGAUAACCUCUCUAUGG RNA 2: GGGAAUGGAUCCACAUCUACGAAUUCGUAUCAUAGAGAGGUUGUCCGCUCACCGAGAUCGGAAGAGCACACGU | 27.3 ± 2.3 nM |
| target 1 complement block 6-11 (mixed) RNA 1: CACCCGUGCAAAAAUGCAGGGGUCUAAAACUGAGCGGAUAACCUCUCUAUGG RNA 2: GGGAAUGGAUCCACAUCUACGAAUUCGUACCAUAGAGAGGAAUAGGGCUCACCGAGAUCGGAAGAGCACACGU | 14.5 ± 1.2 nM |
| target 1 G12U,A14U (mixed) RNA 1: CACCCGUGCAAAAAUGCAGGGGUCUAAAACUGAGCGGAUAACCUCUCUAUGG RNA 2: GGGAAUGGAUCCACAUCUACGAAUUCGUACCAUAGAGUGUUUAUCCGCUCACCGAGAUCGGAAGAGCACACGU | 25 ± 9 nM |
